Test results published in patent US7419799 (GENETECH, dated 2008).
Each block holds one binder with its values, some of them ahead of it.

Experiments:
[1] = target: T1, SHP2 (human, UniProt Q06124 2-593); assay: co-immunoprecipitation from isolated human CD4+ T cells (untreated), Western blot
T1 sequence (looked up): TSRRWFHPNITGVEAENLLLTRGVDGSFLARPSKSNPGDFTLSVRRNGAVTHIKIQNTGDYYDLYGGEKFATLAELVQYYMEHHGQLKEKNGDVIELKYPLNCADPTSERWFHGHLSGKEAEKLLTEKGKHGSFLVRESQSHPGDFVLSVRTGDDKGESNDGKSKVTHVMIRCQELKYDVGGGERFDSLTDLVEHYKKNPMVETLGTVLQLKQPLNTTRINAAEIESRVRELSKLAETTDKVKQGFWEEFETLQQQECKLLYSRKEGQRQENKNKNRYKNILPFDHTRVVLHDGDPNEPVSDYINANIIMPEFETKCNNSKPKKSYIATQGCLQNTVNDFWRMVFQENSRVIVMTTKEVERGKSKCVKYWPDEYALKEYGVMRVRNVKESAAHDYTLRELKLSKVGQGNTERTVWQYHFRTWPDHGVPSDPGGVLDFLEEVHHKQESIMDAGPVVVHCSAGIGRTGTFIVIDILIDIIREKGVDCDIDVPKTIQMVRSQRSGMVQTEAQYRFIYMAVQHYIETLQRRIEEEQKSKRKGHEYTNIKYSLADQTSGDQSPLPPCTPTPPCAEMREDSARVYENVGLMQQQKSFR

[2] = target: T2, SHP1 (human, UniProt P29350 1-595); assay: as above
T2 sequence (P29350 whole entry): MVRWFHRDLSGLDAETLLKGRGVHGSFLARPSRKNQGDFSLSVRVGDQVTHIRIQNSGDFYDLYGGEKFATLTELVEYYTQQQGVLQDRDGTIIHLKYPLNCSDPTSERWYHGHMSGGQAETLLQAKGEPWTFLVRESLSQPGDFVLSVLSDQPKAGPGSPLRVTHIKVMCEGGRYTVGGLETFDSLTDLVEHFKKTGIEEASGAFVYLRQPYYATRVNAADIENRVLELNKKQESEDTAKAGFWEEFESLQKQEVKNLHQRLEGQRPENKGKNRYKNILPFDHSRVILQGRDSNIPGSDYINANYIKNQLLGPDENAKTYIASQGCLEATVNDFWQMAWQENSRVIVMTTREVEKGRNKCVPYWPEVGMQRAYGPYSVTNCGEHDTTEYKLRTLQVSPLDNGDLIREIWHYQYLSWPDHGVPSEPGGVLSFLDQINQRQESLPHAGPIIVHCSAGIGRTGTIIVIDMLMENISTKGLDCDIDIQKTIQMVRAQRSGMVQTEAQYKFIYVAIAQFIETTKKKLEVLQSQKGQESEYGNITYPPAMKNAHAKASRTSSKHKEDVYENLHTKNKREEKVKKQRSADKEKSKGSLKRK

[3] = target: T1, SHP2; assay: co-immunoprecipitation from isolated human CD4+ T cells (CD3 and PRO20080 cross-linked), Western blot
[4] = target: T2, SHP1; assay: as above
[5] = target: the molecule itself; assay: BIAcore, homotypic interaction of His-tagged PRO20080
Method: Lastly, a BIAcore® assay was performed to determine if a His-tagged PRO20080 would associate with itself. The association rate can be determined by any method in which formation of the complex may be observed as a function of time. In the BIAcore® analysis, in which one measures the association of the protein to an protein that has been immobilized on a biosensor surface (reviewed by Rich & Myszka, Curr. Opin. Biotechnol. 11:54-61 (2000)).

binding result [1]: no binding
binding result [2]: no binding
B1: wild type PRO20080 (full-length, expressed in cells) (receptor)
chain: FGPGNVVSQSSLTPLMVNGILGESVTLPLEFPAGEKVNFITWLFNETSLAFIVPHETKSPEIHVTNPKQGKRLNFTQSYSLQLSNLKMEDTGSYRAQISTKTSAKLSSYTLRILRQLRNIQVTNHSQLFQNMTCELHLTCSVEDADDNVSFRWEALGNTLSSQPNLTVSWDPRISSEQDYTCIAENAVSNLSFSVSAQKLCEDVKIQYTDTKMILFMVSGICIVFGFIILLLLVLRKRRDSLSLSTQRTQGPAESARNLEYVSVSPTNNTVYASVTHSNRETEIWTPRENDTITIYSTINHSKESKPTFSRATALDNVV
notes: also called PRO20080 receptor

binding result [3]: no binding
binding result [4]: no binding
B2: phosphorylated PRO20080 (receptor)
chain: FGPGNVVSQSSLTPLMVNGILGESVTLPLEFPAGEKVNFITWLFNETSLAFIVPHETKSPEIHVTNPKQGKRLNFTQSYSLQLSNLKMEDTGSYRAQISTKTSAKLSSYTLRILRQLRNIQVTNHSQLFQNMTCELHLTCSVEDADDNVSFRWEALGNTLSSQPNLTVSWDPRISSEQDYTCIAENAVSNLSFSVSAQKLCEDVKIQYTDTKMILFMVSGICIVFGFIILLLLVLRKRRDSLSLSTQRTQGPAESARNLEYVSVSPTNNTVYASVTHSNRETEIWTPRENDTITIYSTINHSKESKPTFSRATALDNVV
modifications: tyrosine-phosphorylated (detected with anti-phosphotyrosine antibody; sites not stated)
notes: The phosphorylated residues are not identified; also called PRO20080 in pervanadate treated cells; PRO20080 after CD3 and PRO20080 cross linking

B3: His-tagged PRO20080 (receptor)
chain: QSSLTPLMVNGILGESVTLPLEFPAGEKVNFITWLFNETSLAFIVPHETKSPEIHVTNPKQGKRLNFTQSYSLQLSNLKMEDTGSYRAQISTKTSAKLSSYTLRILRQLRNIQVTNHSQLFQNMTCELHLTCSVEDADDNVSFRWEALGNTLSSQPNLTVSWDPRISSEQDYTCIAENAVSNLSFSVSAQKLCEDVKIQYTDTKM
notes: In the BIAcore assay the same protein served as both the immobilized and the soluble partner; not shown: His tag
Kd [5]: > 100 µM
